Residue numbers refer to the chain shown, from its start.
B1: 16-B2 (Fab, V domains shown)
VH: QVQLVQSGAEVKKPGASVKVSCKASGYTFTNYDIIWVRQAPGQGLEWMGYINPYNDGTKYNEKFKGRVTMTRDTSTSTVYMELSSLRSEDTAVYYCARLLKYRRFRYYAIDYWGQGTTVTVSS
VL: DIQMTQSPSSLSASVGDRVTITCRASENVYSNLAWYQQKPGKAPKLLIYAASNLQSGVPSRFSGSGSGTDFTFTISSLQPEDIATYYCQHFWGSPFTFGQGTKLEIK
notes: Fab
B2: 1-A11 (Fab, V domains shown)
VH: B1 VH with D33V, I35L, R106S
VL: B1 VL with G93Y
notes: Fab
B3: 4-E1 (Fab, V domains shown)
VH: B1 VH with D33V, I35L, R104A, R106S
VL: B1 VL
notes: Fab
B4: 4A6-12 (Fab, V domains shown)
VH: B1 VH with D56R, G57R, T58R
VL: B1 VL with R24H, F71Y
notes: Fab
B5: 4B12-6 (Fab, V domains shown)
VH: B1 VH with D56G, T58R, K59E
VL: B1 VL with N28P, L33V, F71Y
notes: Fab
B6: 4B12-16 (Fab, V domains shown)
VH: B1 VH with P53A, D56G, G57R, T58R, K59E
VL: B1 VL with N28P, L33V, F71Y
notes: Fab
B7: 4B12-22 (Fab, V domains shown)
VH: B1 VH with D56G, G57R, T58R, K59E, R103A
VL: B1 VL with N28P, L33V, F71Y
notes: Fab
B8: 3-B11 (Fab, V domains shown)
VH: B1 VH with D33V, I35L
VL: B1 VL with G93Y, P95G
notes: Fab
B9: 4B12-20 (Fab, V domains shown)
VH: B1 VH with D56G, G57R, T58R, K59E, N61A
VL: B1 VL with N28P, L33V, F71Y
notes: Fab
B10: 4-F10 (Fab, V domains shown)
VH: B1 VH with D33V, I35L, R106S
VL: B1 VL with H90Q, G93Y
notes: Fab
B11: 4B12-19 (Fab, V domains shown)
VH: B1 VH with D56G, G57R, T58R, K59E, Y60A
VL: B1 VL with N28P, L33V, F71Y
notes: Fab
B12: 3-F11 (Fab, V domains shown)
VH: B1 VH with D33V, I35L
VL: B1 VL with G93Y
notes: Fab
B13: 1-E9 (Fab, V domains shown)
VH: B1 VH with D33V, I35L, F105M, R106S
VL: B1 VL with G93Y
notes: Fab
B14: 1-B10 (Fab, V domains shown)
VH: B1 VH with D33V, I35L, R106S, Y107F
VL: B1 VL with H90G, G93Y
notes: Fab
B15: 3-G7 (Fab, V domains shown)
VH: B1 VH with D33V, I35L, R106S, I110E
VL: B1 VL with H90N, G93Y
notes: Fab
B16: 4B12-3 (Fab, V domains shown)
VH: B1 VH with N55V, D56G, G57R, T58R, K59E
VL: B1 VL with N28P, L33V, F71Y
notes: Fab
B17: 4B12-7 (Fab, V domains shown)
VH: B1 VH with D56G, G57R, K59E
VL: B1 VL with N28P, L33V, F71Y
notes: Fab
B18: 1-D3 (Fab, V domains shown)
VH: B1 VH with D33V, I35L, R106S, Y112E
VL: B1 VL with G93Y
notes: Fab
B19: 4B12-21 (Fab, V domains shown)
VH: B1 VH with D56G, G57R, T58R, K59E, K101A
VL: B1 VL with N28P, L33V, F71Y
notes: Fab
B20: 4B12-17 (Fab, V domains shown)
VH: B1 VH with Y54A, D56G, G57R, T58R, K59E
VL: B1 VL with N28P, L33V, F71Y
notes: Fab
B21: 3-G5 (Fab, V domains shown)
VH: B1 VH with D33V, I35L, R106S
VL: B1 VL with H90N, G93Y
notes: Fab
B22: 4B12-13 (Fab, V domains shown)
VH: B1 VH with D56G, G57R, T58R, K59E, E62A
VL: B1 VL with N28P, L33V, F71Y
notes: Fab
B23: 2-F10 (Fab, V domains shown)
VH: B1 VH with D33V, I35L, R106S
VL: B1 VL with H90V, G93Y
notes: Fab
B24: 4-D4 (Fab, V domains shown)
VH: B1 VH with D33V, I35L
VL: B1 VL with G93Y
notes: Fab
B25: 4-A1 (Fab, V domains shown)
VH: B1 VH with D33V, I35L, R106S
VL: B1 VL with W92Y, G93Y
notes: Fab
B26: 4B12-18 (Fab, V domains shown)
VH: B1 VH with N55A, D56G, G57R, T58R, K59E
VL: B1 VL with N28P, L33V, F71Y
notes: Fab
B27: 4-B2 (Fab, V domains shown)
VH: B1 VH with D33V, I35L
VL: B1 VL
notes: Fab
B28: 3-F2 (Fab, V domains shown)
VH: B1 VH with D33V, I35L, R106S
VL: B1 VL with G93Y, T97I
notes: Fab
B29: 2-G12 (Fab, V domains shown)
VH: B1 VH with D33V, I35L
VL: B1 VL with G93Y, S94R
notes: Fab
B30: 3-H8 (Fab, V domains shown)
VH: B1 VH with D33V, I35L
VL: B1 VL with G93Y, T97V
notes: Fab
B31: 4B12-8 (Fab, V domains shown)
VH: B1 VH with D56G, G57R, T58R
VL: B1 VL with N28P, L33V, F71Y
notes: Fab
B32: 1-B11 (Fab, V domains shown)
VH: B1 VH with D33V, I35L, R106S
VL: B1 VL with H90N, G93Y
notes: Fab
B33: 2-F6 (Fab, V domains shown)
VH: B1 VH with D33V, I35L
VL: B1 VL with G93Y
notes: Fab
B34: 4B12-4 (Fab, V domains shown)
VH: B1 VH with D56A, G57R, T58R, K59E
VL: B1 VL with N28P, L33V, F71Y
notes: Fab
B35: 4B12-15 (Fab, V domains shown)
VH: B1 VH with N52A, D56G, G57R, T58R, K59E
VL: B1 VL with N28P, L33V, F71Y
notes: Fab
B36: 1-A6 (Fab, V domains shown)
VH: B1 VH with D33V, I35L, F105H, R106S
VL: B1 VL with G93K
notes: Fab
B37: 3-F7 (Fab, V domains shown)
VH: B1 VH with D33V, I35L
VL: B1 VL with G93K
notes: Fab
B38: 2-B1 (Fab, V domains shown)
VH: B1 VH with D33V, I35L, R106S
VL: B1 VL with H90N, G93Y
notes: Fab
B39: 4B12-2 (Fab, V domains shown)
VH: B1 VH with N55Q, D56G, G57R, T58R, K59E
VL: B1 VL with N28P, L33V, F71Y
notes: Fab
B40: 1-H6 (Fab, V domains shown)
VH: B1 VH with D33V, I35L, R106S
VL: B1 VL with G93W
notes: Fab
B41: 4-C7 (Fab, V domains shown)
VH: B1 VH with D33V, I35L, R106S
VL: B1 VL
notes: Fab
B42: 4B12-14 (Fab, V domains shown)
VH: B1 VH with N52S, D56G, G57R, T58R, K59E
VL: B1 VL with N28P, L33V, F71Y
notes: Fab
B43: 4B12-5 (Fab, V domains shown)
VH: B1 VH with G57R, T58R, K59E
VL: B1 VL with N28P, L33V, F71Y
notes: Fab
B44: 2-A2 (Fab, V domains shown)
VH: B1 VH with D33V, I35L, F105L, R106S
VL: B1 VL with G93Y
notes: Fab
B45: 1-G12 (Fab, V domains shown)
VH: B1 VH with D33V, I35L, R106S
VL: B1 VL with G93Y, T97G
notes: Fab
B46: 3-F10 (Fab, V domains shown)
VH: B1 VH with D33V, I35L, R106S
VL: B1 VL with G93Y, T97K
notes: Fab
B47: 3-C12 (Fab, V domains shown)
VH: B1 VH with D33V, I35L, R106S
VL: B1 VL
notes: Fab

Biological target: TrkB (Homo sapiens (Human), UniProt Q16620 32-430)
Sequence (Q16620 32-430 limits assumed): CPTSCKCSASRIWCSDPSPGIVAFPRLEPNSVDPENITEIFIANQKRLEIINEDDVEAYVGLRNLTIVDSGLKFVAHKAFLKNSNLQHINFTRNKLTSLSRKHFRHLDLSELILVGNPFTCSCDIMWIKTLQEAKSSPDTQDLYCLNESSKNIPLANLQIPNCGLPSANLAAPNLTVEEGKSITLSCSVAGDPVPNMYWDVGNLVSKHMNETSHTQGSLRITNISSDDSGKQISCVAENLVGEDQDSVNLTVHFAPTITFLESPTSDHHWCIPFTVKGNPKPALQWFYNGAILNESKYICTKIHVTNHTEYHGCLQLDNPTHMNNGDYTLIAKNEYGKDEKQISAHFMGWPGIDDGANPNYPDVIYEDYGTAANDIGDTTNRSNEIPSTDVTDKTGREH
Assay: koff of Fab at 25 C; T1/2=Log2/koff
In short: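 Monovalent Fab fragments were tested at 25° C by surface plasmon resonance on a Biacore instrument, against TrkB extracellular-domain monomer amine-coupled to the chip at low capacity. Fabs were injected low to high as a 3-fold serial dilution from 100 nM for 84 sec, with a 10 minute dissociation after the top sample. The dissociation half-life was calculated from koff, which was fitted to a Langmuir binding model in BIAevaluation. The formula used was T1/2 = Log 2/koff.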

| T1/2 [min] | Binder |
| --- | --- |
| 5 | B1 |
| 1.08 | B2 |
| 0.71 | B3 |
| 74.2 | B4 |
| 3.7 | B5 |
| 5.6 | B6 |
| 3.5 | B7 |
| 0.87 | B8 |
| 12.2 | B9 |
| 1.03 | B10 |
| 13.1 | B11 |
| 1.16 | B12 |
| 1.04 | B13 |
| 0.55 | B14 |
| 0.92 | B15 |
| 6.6 | B16 |
| 7.6 | B17 |
| 0.92 | B18 |
| 0.3 | B19 |
| 1 | B20 |
| 1.21 | B21 |
| 13.7 | B22 |
| 0.48 | B23 |
| 1.24 | B24 |

| T1/2 [min] | Binder |
| --- | --- |
| 0.93 | B25 |
| 3.8 | B26 |
| 1.33 | B27 |
| 1.38 | B28 |
| 0.3 | B29 |
| 0.81 | B30 |
| 13.8 | B31 |
| 0.72 | B32 |
| 0.23 | B33 |
| 11.4 | B34 |
| 2.7 | B35 |
| 0.42 | B36 |
| 1.01 | B37 |
| 0.32 | B38 |
| 5.8 | B39 |
| 0.62 | B40 |
| 1.4 | B41 |
| 3.2 | B42 |
| 16.1 | B43 |
| 0.57 | B44 |
| 0.4 | B45 |
| 0.79 | B46 |
| 0.84 | B47 |
